Assays:
[1] = target: LD655-labeled p97 D592AzF (human) (UniProt P55072); assay: cryo-EM structure; datasets 1 and 2: 12.5 uM ^LD655p97^D592AzF, 10 uM UN, 10 uM Faf1 FH-UBX, 20 uM Ub-^Cy3Ub-Ubn, GF buffer with 5 mM ATP, 0.06% CHAPS, 0.04% octyl-β-D-glucopyranoside, frozen at once after mixing; PI state, I state, Npl4 local map, IC1 and IC2
[2] = target: LD655-labeled p97 D592AzF (human) (UniProt P55072); assay: FRET or BRET; stopped-flow mixing, 37°C, with ATP; 1 uM ^LD655p97/UN/Faf1 and 0.1 uM Ub-^Cy3Ub-Ubn chains; excitation 480 nm; apparent time constant
[3] = target: T1, Ufd1 (human) (human)
T1 sequence (Q92890 1-307, looked up): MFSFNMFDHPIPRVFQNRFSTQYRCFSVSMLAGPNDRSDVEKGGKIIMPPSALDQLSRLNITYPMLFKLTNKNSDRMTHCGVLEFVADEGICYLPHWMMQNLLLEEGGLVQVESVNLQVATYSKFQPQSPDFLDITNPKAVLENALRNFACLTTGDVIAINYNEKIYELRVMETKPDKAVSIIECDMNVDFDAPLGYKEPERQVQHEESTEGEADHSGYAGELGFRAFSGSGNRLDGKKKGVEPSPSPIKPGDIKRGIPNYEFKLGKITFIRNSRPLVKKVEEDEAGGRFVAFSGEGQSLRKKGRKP

“Faf1 FH-UBX fragment (from UniProt Q9UNN5 481-650) (domain or fragment)” showed a stoichiometry N (per p97 hexamer) [1] of 2.

For “unanchored poly-ubiquitin chains with Cy3 on the second ubiquitin (Ub-^Cy3Ub-Ubn) (from UniProt P0CG48 1-76; P0CG48 1-76; P0CG48 1-76)”, the apparent time constant of ubiquitin insertion (τinitiation) [2] was 5.1 s.

B1: Faf2 Δ1-271 (domain or fragment)
chain: YLVSERLEREERNQTQVLRQQQDEAYLASLRADQEKERKKREERERKRRKEEEVQQQKLAEERRRQNLQEEKERKLECLPPEPSPDDPESVKIIFKLPNDSRVERRFHFSQSLTVIHDFLFSLKESPEKFQIEANFPRRVLPCIPSEEWPNPPTLQEAGLSHTEVLFVQDLTDE
B1 was tested, and the Eos-unfolding activity of p97-UN [3] was 5 fold.

Source: PMC13356908
